Measurements taken from publication PMC2924587 (2010).

Target: Protein phosphatase 1 alpha 7-330 (Homo sapiens, UniProt P62136)
Assay: ITC

Sequence of Protein phosphatase 1 alpha 7-330 (P62136 7-330): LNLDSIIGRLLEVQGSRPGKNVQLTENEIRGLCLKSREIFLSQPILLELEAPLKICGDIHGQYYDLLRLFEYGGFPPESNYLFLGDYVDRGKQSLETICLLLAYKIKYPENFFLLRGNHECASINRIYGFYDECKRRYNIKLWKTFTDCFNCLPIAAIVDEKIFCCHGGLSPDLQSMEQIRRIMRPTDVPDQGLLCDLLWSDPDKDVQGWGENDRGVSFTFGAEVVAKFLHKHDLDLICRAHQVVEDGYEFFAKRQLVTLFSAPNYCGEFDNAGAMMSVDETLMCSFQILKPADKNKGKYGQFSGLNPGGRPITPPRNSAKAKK

B1: Spinophilin 417-583 (protein)
chain: not shown
Kd: 8.7 nM
